Reference: publication PMC2912431

Legend:
[1] = biological target: C28A UreGStr (Klebsiella aerogenes) (UniProt P18319); assay: SEC
[2] = biological target: Klebsiella aerogenes UreE (Klebsiella aerogenes); assay: SEC

| stoichiometry N [2] | Substance | stoichiometry N [1] |
| --- | --- | --- |
|  | C28A UreGStr (from UniProt P18319 1-205) (natural protein) | 2 |
| 2 | Klebsiella aerogenes UreE (natural protein) |  |
